Assay results: patent publication US20170152292A1 (FONDATION THE ARK, published 2017)
“And” between values parts separate entries of the source, which are not always exact repeats. Equal values may be shown once. Bridges are numbered along the chain shown (N, C = ends). Where no end group is shown, it is not given here. [ ]: non-standard residue; d: D form. R8 = C=CCCCCCC[C@@](C)(N)C(=O)O; S5 = C=CCCC[C@](C)(N)C(=O)O

Tests used:
[1] = biological target: monomeric N protein NK170AR185A-His (N^mono) (human respiratory syncytial virus (HRSV)) (UniProt P03418); test: SPR, GST-P[1-40] mutant captured on anti-GST antibody, N^mono injected
[2] = biological target: monomeric N protein NK170AR185A-His (N^mono) (human respiratory syncytial virus (HRSV)) (UniProt P03418); test: SPR (Proteon XPR36): GST-P[1-40] mutant captured on anti-GST antibody, N^mono injected, steady-state fit
[3] = biological target: monomeric N protein NK170AR185A-His (N^mono) (human respiratory syncytial virus (HRSV)) (UniProt P03418); test: SPR (ProteOn XPR36), GST-P[1-40] captured on anti-GST antibody, N^mono injected, steady-state fit; upper end of the range 4-5 µM
[4] = biological target: monomeric N protein NK170AR185A-His (N^mono) (human respiratory syncytial virus (HRSV)) (UniProt P03418); test: SPR (ProteOn XPR36), GST-P[1-40] captured on anti-GST antibody, N^mono injected, steady-state fit; lower end of the range 4-5 µM
[5] = biological target: RSV nucleoprotein N, wild type (N^0 form in cells) (human respiratory syncytial virus (HRSV)) (UniProt P03418); test: cell-based or functional assay
[6] = biological target: T1, monomeric N protein NK170AR185A-His (N^mono) (human respiratory syncytial virus (HRSV), UniProt P03418 1-391); test: fluorescence polarization competition: stapled peptide titrated against FAM-P(1-40) on recombinant N^mono
T1 construct: also called NK170AR185A-His protein; recombinant N^mono
T1 sequence: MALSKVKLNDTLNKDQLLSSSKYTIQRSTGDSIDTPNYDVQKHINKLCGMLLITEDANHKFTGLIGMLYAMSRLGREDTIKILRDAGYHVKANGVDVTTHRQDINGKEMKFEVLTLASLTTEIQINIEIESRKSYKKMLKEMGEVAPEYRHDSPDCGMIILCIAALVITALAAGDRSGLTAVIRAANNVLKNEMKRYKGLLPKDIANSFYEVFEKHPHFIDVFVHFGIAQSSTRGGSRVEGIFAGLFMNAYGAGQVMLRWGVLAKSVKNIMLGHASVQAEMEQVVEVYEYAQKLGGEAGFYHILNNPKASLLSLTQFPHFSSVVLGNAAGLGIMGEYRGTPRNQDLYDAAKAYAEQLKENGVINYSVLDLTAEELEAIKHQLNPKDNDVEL

| Molecule | Kd [1] | Kd [2] | luciferase activity in the HRSV minigenome replication assay [5] | also measured |
| --- | --- | --- | --- | --- |
| GST-P[1-40] E2A (from UniProt P12579 1-40) | 1.9 µM |  |  | fold increase of affinity against wild type GST-P[1-40] [1]: 2 fold |
| GST-P[1-40] E7A (from UniProt P12579 1-40) | > 10 µM and < 20 µM | 11.1 µM |  |  |
| GST-P[1-40] E22A (from UniProt P08515 1-218; P12579 1-40) |  | 7.49 µM |  |  |
| GST-P[1-40] F4A (from UniProt P12579 1-40) | > 10 µM and < 20 µM | 13.8 µM |  |  |
| GST-P[1-40] F8A (from UniProt P12579 1-40) | 41 µM |  |  |  |
| GST-P[1-40] G10A (from UniProt P12579 1-40) | > 5 µM and < 10 µM | 5.1 µM |  |  |
| GST-P[1-40] G26A (from UniProt P12579 1-40) | 2.6 µM |  |  | fold increase of affinity against wild type GST-P[1-40] [1]: 2 fold |
| GST-P[1-40] H9A (from UniProt P12579 1-40) |  | 4 µM |  |  |
| GST-P[1-40] I24A (from UniProt P12579 1-40) | > 10 µM and < 20 µM | 16.4 µM |  |  |
| GST-P[1-40] K3A (from UniProt P12579 1-40) |  | 3.49 µM |  |  |
| GST-P[1-40] K25A (from UniProt P12579 1-40) | > 5 µM and < 10 µM | 7.77 µM |  |  |
| GST-P[1-40] L21A (from UniProt P08515 1-218; P12579 1-40) |  | 17.6 µM |  |  |
| GST-P[1-40] P6A (from UniProt P12579 1-40) |  | 4.89 µM |  |  |
| GST-P[1-40] S23A (from UniProt P12579 1-40) |  | 4.5 µM |  |  |
| GST-P[1-40] wild type (from UniProt P12579 1-40) |  |  |  | Kd [3]: < 5 µM; Kd [4]: > 4 µM |
| RSV phosphoprotein P E7A (full length, plasmid pP) (from UniProt P12579 1-241) |  |  | 50 % reduction |  |
| RSV phosphoprotein P F4A (full length, plasmid pP) (from UniProt P12579 1-241) |  |  | 50 % reduction | polymerase activity in the HRSV minigenome replication assay [5]: 80 % reduction |
| RSV phosphoprotein P F8A (full length, plasmid pP) (from UniProt P12579 1-241) |  |  | 50 % reduction | polymerase activity in the HRSV minigenome replication assay [5]: 80 % reduction |
| RSV phosphoprotein P F20A (full length, plasmid pP) (from UniProt P12579 1-241) |  |  | 50 % reduction | polymerase activity in the HRSV minigenome replication assay [5]: 80 % reduction |
| RSV phosphoprotein P G10A (full length, plasmid pP) (from UniProt P12579 1-241) |  |  | 50 % reduction | polymerase activity in the HRSV minigenome replication assay [5]: 80 % reduction |
| RSV phosphoprotein P I24A (full length, plasmid pP) (from UniProt P12579 1-241) |  |  | 50 % reduction |  |
| RSV phosphoprotein P K25A (full length, plasmid pP) (from UniProt P12579 1-241) |  |  | 50 % reduction |  |
| RSV phosphoprotein P L21A (full length, plasmid pP) (from UniProt P12579 1-241) |  |  | 50 % reduction |  |
| Ac-EDANNKAT[R8]FLESIK[S5]KFAS (staple 9-16) [HEVS108] |  |  |  | binding result [6]: no binding |
